The values below come from patent US20230220007A1, “SETD7 EPIGENETIC MODULATORS” (Biorchestra Co., Ltd., priority 2020, published 2023).

Numbering of substitutions follows the chain as printed. Numbers in names are those of the source.

B1: WT SETD7: wild type histone-lysine N-methyltransferase SETD7, full length (SEQ ID NO: 37) (protein)
chain: MDSDDEMVEEAVEGHLDDDGLPHGFCTVTYSSTDRFEGNFVHGEKNGRGKFFFFDGSTLEGYYVDDALQGQGVYTYEDGGVLQGTYVDGELNGPAQEYDTDGRLIFKGQYKDNIRHGVCWIYYPDGGSLVGEVNEDGEMTGEKIAYVYPDERTALYGKFIDGEMIEGKLATLMSTEEGRPHFELMPGNSVYHFDKSTSSCISTNALLPDPYESERVYVAESLISSAGEGLFSKVAVGPNTVMSFYNGVRITHQEVDSRDWALNGNTLSLDEETVIDVPEPYNHVSKYCASLGHKANHSFTPNCIYDMFVHPRFGPIKCIRTLRAVEADEELTVAYGYDHSPPGKSGPEAPEWYQVELKAFQATQQK
B2: Y305A: SETD7 mutant, Tyr305 mutated to alanine (phospho-disrupting mutation) (protein)
chain: B1 chain with Y305A
B3: S225A: SETD7 mutant, Ser225 mutated to alanine (phospho-disrupting mutation) (protein)
chain: B1 chain with S225A
B4: S345: SETD7 mutant, Ser345 mutated to alanine (phospho-disrupting mutation) (protein, UniProt Q8WTS6 1-366, looked up, variant S345A)
Histone-lysine …: B1 chain with S345A
B5: H297A: SETD7 mutant protein with H297A mutation, abolishes methyltransferase activity (protein)
chain: B1 chain with H297A
B6: Y245A: SETD7 substitution mutant at position 245 (protein)
chain: B1 chain with Y245A
B7: K366A: SETD7 substitution mutant at position 366 (protein)
chain: B1 chain with K366A
B8: K358A: SETD7 substitution mutant at position 358 (protein)
chain: B1 chain with K358A
B9: Q354A: SETD7 substitution mutant at position 354 (protein)
chain: B1 chain with Q354A
B10: Q361A: SETD7 substitution mutant at position 361 (protein)
chain: B1 chain with Q361A
B11: W352A: SETD7 substitution mutant at position 352 (protein)
chain: B1 chain with W352A
B12: Q365A: SETD7 substitution mutant at position 365 (protein)
chain: B1 chain with Q365A
B13: Y353A: SETD7 substitution mutant at position 353 (protein)
chain: B1 chain with Y353A
B14: E351A: SETD7 substitution mutant at position 351 (protein)
chain: B1 chain with E351A
B15: E356A: SETD7 substitution mutant at position 356 (protein)
chain: B1 chain with E356A
B16: K294A: SETD7 substitution mutant at position 294 (protein)
chain: B1 chain with K294A
B17: D270A: SETD7 substitution mutant at position 270 (protein)
chain: B1 chain with D270A
B18: E329A: SETD7 substitution mutant at position 329 (protein)
chain: B1 chain with E329A
B19: N296A: SETD7 substitution mutant at position 296 (protein)
chain: B1 chain with N296A
B20: E330A: SETD7 substitution mutant at position 330 (protein)
chain: B1 chain with E330A
B21: Y335A: SETD7 substitution mutant at position 335 (protein)
chain: B1 chain with Y335A
B22: E254A: SETD7 substitution mutant at position 254 (protein)
chain: B1 chain with E254A
B23: N302A: SETD7 substitution mutant at position 302 (protein)
chain: B1 chain with N302A

In the first series the test system is human retinal pigment epithelial cells (RPE). The series is described as follows: Nuclear translocation of SETD7 alanine (phospho-disrupting) mutants in response to high glucose levels. It counts as cell-based. As to conditions: mutants expressed in human RPE cells; FIG. 3. The text has this:
To identify the potential role of phosphorylatable sites located in the C-terminal regions of SETD7 (FIG. 1), phosphorylatable serines, threonines and tyrosines at positions 225, 305, 332, 340, and 345 where mutated to alanine (phospho-disrupting mutations) and expressed in human retinal pigment epithelial cells (RPE). Nuclear translocation or lack thereof in response to high glucose levels was examined (FIG. 2).
SETD7 cellular distribution changed in response to changes in glucose levels for wild type SETD7 (WT) and SETD7 mutants comprising a S225A substitution or a Y305A substitutions.
Take B1: the “nuclear translocation in response to changes in glucose” value is “translocated normally to the nucleus”.

For the molecule B2, the “nuclear translocation in response to changes in glucose” value is “translocated normally to the nucleus”.

On to B3, for which the “nuclear translocation in response to changes in glucose” value is “translocated normally to the nucleus”.

Turning to B4, the “nuclear translocation in response to changes in glucose” value is “did not translocate to the nucleus”.

In the next series the test system is histone.
Experiment: not given
As to conditions: His297 mutation; cited from earlier work.
Take B5: the “methyltransferase activity (enzymatic activity)” value is on record as “abolishes”.

The series is the same for the next values; noted with them: SETD7 substitution mutants; cited from earlier work.
On to B6, for which the monomethyl transferase activity result was “significantly reduces”.

Take B7: the monomethyl transferase activity entry is given as “partial loss”.

Turning to B8, the monomethyl transferase activity result is “partial loss”.

Consider B9, for which the monomethyl transferase activity result was “partial loss”.

Regarding B10, the monomethyl transferase activity entry is on record as “partial loss”.

On to B11, for which the monomethyl transferase activity result is “complete loss”.

B12: the monomethyl transferase activity entry is “partial loss”.

With B13, the monomethyl transferase activity entry is listed as “complete loss”.

For the molecule B14, the monomethyl transferase activity entry is given as “partial loss”.

As for B15, the monomethyl transferase activity result is “partial loss”.

The series is the same for the next values; noted with them: cited from earlier work.
With B6, the dimethyltransferase activity entry is recorded as “increases”.

B16: the “catalytic activity (e.g., monomethyl transferase activity)” value is reported as “reduces”.

Still in this series, the particulars now being: mutagenic studies on SETD7; cited from earlier work.
For the molecule B6, the “histone monomethyl transferase activity” value is on record as “partial or complete loss”.

With B17, the “histone monomethyl transferase activity” value is listed as “partial or complete loss”.

Take B18: the “histone monomethyl transferase activity” value is listed as “partial or complete loss”.

Consider B19, for which the “histone monomethyl transferase activity” value was “partial or complete loss”.

As to B5, the “histone monomethyl transferase activity” value is reported as “partial or complete loss”.

Regarding B20, the “histone monomethyl transferase activity” value is listed as “partial or complete loss”.

On to B21, for which the “histone monomethyl transferase activity” value was “partial or complete loss”.

For B22, the “histone monomethyl transferase activity” value is on record as “partial or complete loss”.

Take B23: the “histone monomethyl transferase activity” value is “partial or complete loss”.
